Data on 5 compounds can be found in paper PMC5724010 (The Journal of Biological Chemistry, 2017).

In data set [1] the test system is CCCCCCC(=O)Oc1ccc2c(C)cc(=O)oc2c1. Kind of data set: purified protein, by the assay type.
Experimental: (§1) In detail, FplA was used at 1 nM in the reaction, and substrate (50 mM stock in 100% DMSO) dilutions (0–200 μM) and reactions were carried out in reaction buffer (50 mM Tris, pH 8.5, 50 mM NaCl, 0.025% BOG). All samples, including controls, contained equal concentrations of DMSO (0.4%). Reactions were run at 26 °C for 30 min with 3 s of shaking between continuous fluorescent monitoring (excitation = 360 nm, emission = 449 nm) every 2 min on a SpectraMax M5^e plate reader. Relative fluorescence units measured upon cleavage of substrate ester bonds and release of the acyl chain were converted to the concentration of product (4-methylumbeliferone; 4-Mu) created by establishing a standard curve using pure 4-Mu (Sigma-Aldrich).
(§2) The steady-state kinetic parameters for each substrate were determined using GraphPad Prism version 6 (GraphPad Software, La Jolla, CA) by fitting the initial rate data (n = 2) to the Michaelis–Menten equation, (Eq. 1) v=Vmax⁡[S]/(Km+[S]) to obtain the values reported in Fig. 2 and supplemental Fig. S3.
Data set [2] has as its system CCCCCCCCCCCCCCCC(=O)Oc1ccc2c(C)cc(=O)oc2c1. Kind of data set: purified protein, by the assay type. The note with it: other: Fig. 4C/D, substrate of FplA(20–431), 1 nM enzyme, pH 8.5, 26 °C.
Experimental: as §1, §2
The subject of data set [3] is CCCC(=O)Oc1ccc2c(C)cc(=O)oc2c1. The data set can be described thus: purified protein, by the assay type. The note with it: other: Fig. 4C/D, substrate of FplA(20–431), 1 nM enzyme, pH 8.5, 26 °C.
Experimental: as §1, §2
Data set [4] addresses FplA(20–431) (Fusobacterium nucleatum subsp. nucleatum, UniProt Q8R6F6). It is filed as biochemical, F. nucleatum 25586.
[5] abbreviates: other: Fig. 4E, 4-MuH as substrate, construct FplA20-350, pH 8.5, 26.0 °C.
The mark [6] stands for this setting: other: Fig. 4E, 4-MuH as substrate, construct FplA60-431, pH 8.5, 26.0 °C.
Setting [7] is: other: Fig. 4E, 4-MuH as substrate, construct FplA60-350, pH 8.5, 26.0 °C.
The mark [8] stands for this setting: other: Fig. 4E, 4-MuH as substrate, construct FplA20-431, pH 8.5, 26.0 °C.

Chain of FplA(20–431) (Q8R6F6 20-431 limits assumed): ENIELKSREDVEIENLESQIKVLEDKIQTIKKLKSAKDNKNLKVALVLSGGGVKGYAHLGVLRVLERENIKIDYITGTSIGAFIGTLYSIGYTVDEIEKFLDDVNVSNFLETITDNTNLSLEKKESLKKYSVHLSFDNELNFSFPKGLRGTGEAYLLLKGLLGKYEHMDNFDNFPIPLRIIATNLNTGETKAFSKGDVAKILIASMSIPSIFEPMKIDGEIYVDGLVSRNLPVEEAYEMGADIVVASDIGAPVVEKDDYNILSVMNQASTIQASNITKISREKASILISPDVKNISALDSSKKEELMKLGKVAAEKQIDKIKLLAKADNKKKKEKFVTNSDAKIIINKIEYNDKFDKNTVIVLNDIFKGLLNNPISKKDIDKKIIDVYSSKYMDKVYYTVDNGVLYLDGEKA

For “FplA20-350 (Fusobacterium nucleatum subsp. nucleatum ATCC 25586)”, in data set [1] (setting [5]), the Km worked out at 23.5 ± 6.5 µM and the kcat was determined as 75 ± 6.2 s⁻¹.
“FplA60-431 (Fusobacterium nucleatum subsp. nucleatum ATCC 25586)”: in data set [1] (setting [6]), the Michaelis constant (Km) is 18.2 ± 7.4 µM, the kcat came out at 2.8 ± 0.3 s⁻¹ and the catalytic efficiency (kcat/Km) amounted to 150000 ± 60000 M⁻¹ s⁻¹.
Turning to “FplA60-350 (Fusobacterium nucleatum subsp. nucleatum ATCC 25586)”, in data set [1] (setting [7]), the Km was found to be 17.7 ± 8.4 µM, the turnover number (kcat) amounted to 2.1 ± 0.3 s⁻¹ and the kcat/Km was determined as 120000 ± 60000 M⁻¹ s⁻¹.
Turning to “FplA(20–431) (Fusobacterium nucleatum subsp. nucleatum ATCC 25586)”, the Michaelis constant (Km) in data set [2] was determined as 23 µM; in data set [3], 500 µM; in data set [1] (other: Fig. 4C/D, substrate of FplA(20–431), 1 nM enzyme, pH 8.5, 26 °C), 19 µM; in data set [1] (setting [8]) it was 19.6 ± 5.0 µM. In addition, the catalytic constant (kcat) in data set [1] (setting [8]) worked out at 55 ± 4.0 s⁻¹. Moreover, the specificity constant (kcat/Km) in data set [1] (setting [8]) worked out at 2.8e+06 ± 700000 M⁻¹ s⁻¹.
Turning to `CCCCC/C=C\C/C=C\C/C=C\C/C=C\CCCC(=O)C(F)(F)F` [ATFMK, arachidonyl trifluoromethyl ketone], the “Inhibition of FplA, potency in words” value in data set [4] is reported as “potent inhibitors”.

In general, Km refers to the concentration of substrate that gives half-maximal velocity. As a reminder, the kcat is the maximal rate divided by the concentration of active sites. For orientation: kcat/Km means the turnover number divided by the Michaelis constant.
